Among the data in paper PMC4770912 are response units (RU) after OX130 injection and response units (RU) values, retold here.

In assay [1] the target is SIRPα variant (10), three domain construct with rat CD4d3+4 tag (human). The assay can be described thus: SPR; as a1, CD47 at 22 uM passed over again after OX130 MAb had been passed over the immobilised SIRP proteins.
Assay [2] has the same target. The assay can be described thus: SPR; BIAcore 3000; SIRP proteins captured through their rat CD4d3+4 tag on the rat CD4 MAb OX68 immobilised on a CM5 chip (about 1000 RU); human CD47 at 22 uM passed over; RU of the control rat CD4 domains 3 and 4 subtracted.

Chain of SIRPα variant (10), three domain construct with rat CD4d3+4 tag (human) (main, as listed by the source mutant): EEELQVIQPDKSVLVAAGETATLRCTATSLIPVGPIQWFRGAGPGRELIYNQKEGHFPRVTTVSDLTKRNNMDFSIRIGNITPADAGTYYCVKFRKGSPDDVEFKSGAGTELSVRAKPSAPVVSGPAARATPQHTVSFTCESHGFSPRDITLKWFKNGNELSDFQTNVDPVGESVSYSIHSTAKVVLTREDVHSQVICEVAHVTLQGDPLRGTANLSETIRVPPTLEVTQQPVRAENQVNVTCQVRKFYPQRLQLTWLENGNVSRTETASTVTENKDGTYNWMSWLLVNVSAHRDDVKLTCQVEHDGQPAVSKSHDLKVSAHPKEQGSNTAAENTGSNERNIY

Consider “Human CD47 (from UniProt Q08722 19-141) (ligand)”, for which the response units (RU) after OX130 injection in assay [1] was found to be 247 RU. Moreover, in assay [2], the response units (RU) came out at 280 RU.
